# According to patent US20240383953A1 (BAYLOR COLLEGE OF MEDICINE, published 2024):
# Target: the molecule itself
# Assay: DSSO chemical crosslinking in HEK 293T cells
# From the text: Applicant tested if endogenous NANOG could spontaneously assemble in H9 human embryonic stem cells (ESCs) as well as nucleofected NANOG in differentiated HEK 293T mammalian cells.
protein,measurement,value
"NANOG ΔWR deletion mutant expressed in HEK 293T cells (other, human, UniProt Q9H9S0 1-305, looked up, whole, on cells; also called WR mutants) MSVDPACPQSLPCFEASDCKESSPMPVICGPEENYPSLQMSSAEMPHTETVSPLPSSMDLLIQDSPDSSTSPKGKQPTSAEKSVAKKEDKVPVKKQKTRTVFSSTQLCVLNDRFQRQKYLSLQQMQELSNILNLSYKQVKTWFQNQRMKSKRWQKNNWPKNSNGVTQKASAPTYPSLYSSYHQGCLVNPTGNLPMYNCGEESLQSCMQFQPNSPASDLEAALEAAGEGLNVIQQTTRYFSTPQTMDLFLNYSMNMQPEDV",binding result,no binding
